Experimental data taken from patent US20260167728A1 (published 2026).

B1: AC3797 (CD3.293) (scFv, V domains shown)
VH: EVQLVESGGGIVQPGGSLRLSCAASGFTFSTYAMNWVRQAPGKGLEWVGRIRTKRNNYATYYADSVKGRFTISRDDSKNTVYLQMNSLKTEDTAVYYCVRHENFGNSYVSWFAHWGQGTLVTVSS
VL: ELVVTQEPSLTVSPGGTVTLTCRSSNGAVTSSNYANWVQQKPGQAPRGLIGGTNKRAPGTPARFSGSALGGKAALTLSGVQPEDEAVYYCALWYPNLWVFGGGTKLTVL
notes: Pool 3 format (remarks)
B2: AC3798 (CD3.294) (scFv, V domains shown)
VH: EVQLVESGGGIVQPGGSLRLSCAASGFTFSTYAMNWVRQAPGKGLEWVGRIRTKRNNYATYYADSVKGRFTISRDDSKNTVYLQMNSLKTEDTAVYYCVRHENFGNSYVSWFAHWGQGTLVTVSS
VL: ELVVTQEPSLTVSPGGTVTLTCRSSNGAVTSSNYANWVQQKPGQAPRGLIGGTNKRAPGTPARFSGSGLGGKAALTLSGVQPEDEAVYYCALWYPNLWVFGGGTKLTVL
notes: Pool 3 format (remarks)
B3: AC3844 (CD3.340) (scFv, V domains shown)
VH: EVQLVESGGGIVQPGGSLRLSCAASGFTFNTYAMNWVRQAPGKGLEWVGRIRTKTNDYATYYADSVKGRFTISRDDSKNTLYLQMNSLKTEDTAVYYCVRHENFGNSYVSWFAHWGQGTLVTVSS
VL: ELVVTQEPSLTVSPGGTVTLTCRSSNGAVTSSNYANWVQQKPGQAPRGLIGGTNKRAPGTPARFSGSLNGGKAALTLSGVQPEDEAVYYCALWYPNLWVFGGGTKLTVL
notes: Pool 3 format (remarks)
B4: AC3845 (CD3.341) (scFv, V domains shown)
VH: EVQLVESGGGIVQPGGSLRLSCAASGFTFNTYAMNWVRQAPGKGLEWVGRIRTKTNDYATYYADSVKGRFTISRDDSKNTLYLQMNSLKTEDTAVYYCVRHENFGNSYVSWFAHWGQGTLVTVSS
VL: ELVVTQEPSLTVSPGGTVTLTCRSSNGAVTSSNYANWVQQKPGQAPRGLIGGTNKRAPGTPARFSGSLEGGKAALTLSGVQPEDEAVYYCALWYPNLWVFGGGTKLTVL
notes: Pool 3 format (remarks)
B5: AC3846 (CD3.342) (scFv, V domains shown)
VH: EVQLVESGGGIVQPGGSLRLSCAASGFTFNTYAMNWVRQAPGKGLEWVGRIRTKTNDYATYYADSVKGRFTISRDDSKNTLYLQMNSLKTEDTAVYYCVRHENFGNSYVSWFAHWGQGTLVTVSS
VL: ELVVTQEPSLTVSPGGTVTLTCRSSNGAVTSSNYANWVQQKPGQAPRGLIGGTNKRAPGTPARFSGSLGGGKAALTLSGVQPEDEAVYYCALWYPNLWVFGGGTKLTVL
notes: Pool 3 format (remarks)
B6: AC3847 (CD3.343) (scFv, V domains shown)
VH: EVQLVESGGGIVQPGGSLRLSCAASGFTFNTYAMNWVRQAPGKGLEWVGRIRTKTNDYATYYADSVKGRFTISRDDSKNTLYLQMNSLKTEDTAVYYCVRHENFGNSYVSWFAHWGQGTLVTVSS
VL: ELVVTQEPSLTVSPGGTVTLTCRSSNGAVTSSNYANWVQQKPGQAPRGLIGGTNKRAPGTPARFSGSLDGGKAALTLSGVQPEDEAVYYCALWYPNLWVFGGGTKLTVL
notes: Pool 3 format (remarks)
B7: AC3848 (CD3.344) (scFv, V domains shown)
VH: EVQLVESGGGIVQPGGSLRLSCAASGFTFNTYAMNWVRQAPGKGLEWVGRIRTKTNDYATYYADSVKGRFTISRDDSKNTLYLQMNSLKTEDTAVYYCVRHENFGNSYVSWFAHWGQGTLVTVSS
VL: ELVVTQEPSLTVSPGGTVTLTCRSSNGAVTSSNYANWVQQKPGQAPRGLIGGTNKRAPGTPARFSGSLLGGKAGLTLSGVQPEDEAVYYCALWYPNLWVFGGGTKLTVL
notes: Pool 3 format (remarks)
B8: AC3849 (CD3.345) (scFv, V domains shown)
VH: EVQLVESGGGIVQPGGSLRLSCAASGFTFNTYAMNWVRQAPGKGLEWVGRIRTKTNDYATYYADSVKGRFTISRDDSKNTLYLQMNSLKTEDTAVYYCVRHENFGNSYVSWFAHWGQGTLVTVSS
VL: ELVVTQEPSLTVSPGGTVTLTCRSSNGAVTSSNYANWVQQKPGQAPRGLIGGTNKRAPGTPARFSGSLLEGKAALTLSGVQPEDEAVYYCALWYPNLWVFGGGTKLTVL
notes: Pool 3 format (remarks)
B9: AC3857 (CD3.353) (scFv, V domains shown)
VH: EVQLVESGGGIVQPGGSLRLSCAASGFTFSTYAMNWVRQAPGKGLEWVGRIRTKTNNYATYYADSVKGRFTISRDDSKNTVYLQMNSLKTEDTAVYYCVRHENFGNSYVSWFAHWGQGTLVTVSS
VL: ELVVTQEPSLTVSPGGTVTLTCRSSNGAVTSSNYANWVQQKPGQAPRGLIGGTNKRAPGTPARFSGSLLGGKAGLTLSGVQPEDEAVYYCALWYPNLWVFGGGTKLTVL
notes: Pool 3 format (remarks)
B10: AC3867 (CD3.363) (scFv, V domains shown)
VH: EVQLVESGGGIVQPGGSLRLSCAASGFTFSTYAMNWVRQAPGKGLEWVGRIRTKTNDYATYYADSVKGRFTISRDDSKNTAYLQMNSLKTEDTAVYYCVRHENFGNSYVSWFAHWGQGTLVTVSS
VL: ELVVTQEPSLTVSPGGTVTLTCRSSNGAVTSSNYANWVQQKPGQAPRGLIGGTNKRAPGTPARFSGSLLEGKAALTLSGVQPEDEAVYYCALWYPNLWVFGGGTKLTVL
notes: Pool 3 format (remarks)
B11: AC3869 (CD3.365) (scFv, V domains shown)
VH: EVQLVESGGGIVQPGGSLRLSCAASGFTFSTYAMNWVRQAPGKGLEWVGRIRTKTNDYATYYADSVKGRFTISRDDSKNTLYLQMNSLKTEDTAVYYCVRHENFGNSYVSWFAHWGQGTLVTVSS
VL: ELVVTQEPSLTVSPGGTVTLTCRSSNGAVTSSNYANWVQQKPGQAPRGLIGGTNKRAPGTPARFSGSALGGKAALTLSGVQPEDEAVYYCALWYPNLWVFGGGTKLTVL
notes: Pool 3 format (remarks)
B12: AC3877 (CD3.373) (scFv, V domains shown)
VH: EVQLVESGGGIVQPGGSLRLSCAASGFTFSTYAMNWVRQAPGKGLEDVGRIRTKRNNYATYYADSVKGRFTISRDDSKNTVYLQMNSLKTEDTAVYYCVRHENFGNSYVSWFAHWGQGTLVTVSS
VL: ELVVTQEPSLTVSPGGTVTLTCRSSNGAVTSSNYANWVQQKPGQAPRGLIGGTNKRAPGTPARFSGSLLGGKAALTLSGVQPEDEAVYYCALWYPNLWVFGGGTKLTVL
notes: Pool 3 format (remarks)
B13: AC3880 (CD3.376) (scFv, V domains shown)
VH: EVQLVESGGGIVQPGGSLRLSCAASGFTFSTYAMNWVRQAPGKGLEWVGRIRTKPNNYATYYADSVKGRFTISRDDSKNTVYLQMNSLKTEDTAVYYCVRHENFGNSYVSWFAHWGQGTLVTVSS
VL: ELVVTQEPSLTVSPGGTVTLTCRSSNGAVTSSNYANWVQQKPGQAPRGLIGGTNKRAPGTPARFSGSLLGGKAALTLSGVQPEDEAVYYCALWYPNLWVFGGGTKLTVL
notes: Pool 3 format (remarks)
B14: AC3882 (CD3.378) (scFv, V domains shown)
VH: EVQLVESGGGIVQPGGSLRLSCAASGFTFSTYAMNWVRQAPGKGLEWVGRIRTKRNNYATYDADSVKGRFTISRDDSKNTVYLQMNSLKTEDTAVYYCVRHENFGNSYVSWFAHWGQGTLVTVSS
VL: ELVVTQEPSLTVSPGGTVTLTCRSSNGAVTSSNYANWVQQKPGQAPRGLIGGTNKRAPGTPARFSGSLLGGKAALTLSGVQPEDEAVYYCALWYPNLWVFGGGTKLTVL
notes: Pool 3 format (remarks)
B15: AC3883 (CD3.379) (scFv, V domains shown)
VH: EVQLVESGGGIVQPGGSLRLSCAASGFTFSTYAMNWVRQAPGKGLEWVGRIRTKRNNYATYWADSVKGRFTISRDDSKNTVYLQMNSLKTEDTAVYYCVRHENFGNSYVSWFAHWGQGTLVTVSS
VL: ELVVTQEPSLTVSPGGTVTLTCRSSNGAVTSSNYANWVQQKPGQAPRGLIGGTNKRAPGTPARFSGSLLGGKAALTLSGVQPEDEAVYYCALWYPNLWVFGGGTKLTVL
notes: Pool 3 format (remarks)
B16: AC3884 (CD3.380) (scFv, V domains shown)
VH: EVQLVESGGGIVQPGGSLRLSCAASGFTFSTYAMNWVRQAPGKGLEWVGRIRTKRNNYTTYYADSVKGRFTISRDDSKNTVYLQMNSLKTEDTAVYYCVRHENFGNSYVSWFAHWGQGTLVTVSS
VL: ELVVTQEPSLTVSPGGTVTLTCRSSNGAVTSSNYANWVQQKPGQAPRGLIGGTNKRAPGTPARFSGSLLGGKAALTLSGVQPEDEAVYYCALWYPNLWVFGGGTKLTVL
notes: Pool 3 format (remarks)
B17: AC3659 (CD3.228) (bispecific antibody, V domains shown)
VH: EVQLVESGGGIVQPGGSLRLSCAASGFTFSTYAMNWVRQAPGKGLEWVGRIRTKRNNYATYYADSVKGRFTISRDDSKNTVYLQMNSLKTEDTAVYYCVRHENFGNSYVSWFAHWGQGTLVTVSS
VL: ELVVTQEPSLTVSPGGTVTLTCRSSNGAVTSSNYANWVQQKPGQAPRGLIGGTNKRAPGTPARFSGSLLGGKAALTLSGVQPEDEAVYYCALWYPNLWVFGGGTKLTVL
notes: Pool 2 format (remarks)
B18: AC3660 (CD3.229) (bispecific antibody, V domains shown)
VH: EVQLVESGGGIVQPGGSLRLSCAASGFTFNTYAMNWVRQAPGKGLEWVGRIRTKTNNYATYYADSVKGRFTISRDDSKNTVYLQMNSLKTEDTAVYYCVRHENFGNSYVSWFAHWGQGTLVTVSS
VL: ELVVTQEPSLTVSPGGTVTLTCRSSNGAVTSSNYANWVQQKPGQAPRGLIGGTNKRAPGTPARFSGSLLGGKAALTLSGVQPEDEAVYYCALWYPNLWVFGGGTKLTVL
notes: Pool 2 format (remarks)
B19: AC3803 (CD3.299) (scFv, V domains shown)
VH: EVQLVESGGGIVQPGGSLRLSCAASGFTFSTYAMNWVRQAPGKGLEWVGRIRTKRNNYATYYADSVKGRFTISRDDSKNTVYLQMNSLKTEDTAVYYCVRHENFGNSYVSWFAHWGQGTLVTVSS
VL: ELVVTQEPSLTVSPGGTVTLTCRSSNGAVTSSNYANWVQQKPGQAPRGLIGGTNKRAPGTPARFSGSLLGGKAGLTLSGVQPEDEAVYYCALWYPNLWVFGGGTKLTVL
notes: Pool 3 format (remarks)
B20: AC3878 (CD3.374) (scFv, V domains shown)
VH: EVQLVESGGGIVQPGGSLRLSCAASGFTFSTYAMNWVRQAPGKGLEWGGRIRTKRNNYATYYADSVKGRFTISRDDSKNTVYLQMNSLKTEDTAVYYCVRHENFGNSYVSWFAHWGQGTLVTVSS
VL: ELVVTQEPSLTVSPGGTVTLTCRSSNGAVTSSNYANWVQQKPGQAPRGLIGGTNKRAPGTPARFSGSLLGGKAALTLSGVQPEDEAVYYCALWYPNLWVFGGGTKLTVL
notes: Pool 3 format (remarks)
B21: AC3886 (CD3.382) (scFv, V domains shown)
VH: EVQLVESGGGIVQPGGSLRLSCAASGFTFSTYAMNWVRQAPGKGLEWVGRIRTKRNNYATYYADSVKGRFTISRDDSKNTVYLQMNSLKTEDTAVYYCVRHENFGNAYVSWFAHWGQGTLVTVSS
VL: ELVVTQEPSLTVSPGGTVTLTCRSSNGAVTSSNYANWVQQKPGQAPRGLIGGTNKRAPGTPARFSGSLLGGKAALTLSGVQPEDEAVYYCALWYPNLWVFGGGTKLTVL
notes: Pool 3 format (remarks)

biological target: T1, huCD3e-mFc (human, UniProt P07766 23-126); experiment: Pool 3 screen
T1 construct: not shown: mFc, not described
T1 sequence (P07766 23-126): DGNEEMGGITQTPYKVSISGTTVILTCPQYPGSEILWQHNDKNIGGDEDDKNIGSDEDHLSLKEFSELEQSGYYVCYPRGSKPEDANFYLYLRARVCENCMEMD

Point of comparison: B1, Kd 3.8 nM. Against it:
- B2 — within 1.5-fold, 3.05 nM
- B3 — 2.8-fold higher, 10.6 nM
- B4 — 4.2-fold higher, 15.8 nM
- B5 — 2.6-fold higher, 9.99 nM
- B6 — 3.7-fold higher, 14 nM
- B7 — 3.7-fold higher, 14.2 nM
- B8 — 4.7-fold higher, 18 nM
- B9 — 3.2-fold higher, 12.3 nM
- B10 — 16-fold higher, 62.7 nM
- B11 — 4.9-fold higher, 18.8 nM
- B12 — 2.3-fold higher, 8.92 nM
- B13 — 3.4-fold higher, 12.9 nM
- B14 — within 1.5-fold, 3.74 nM
- B15 — within 1.5-fold, 4.19 nM
- B16 — within 1.5-fold, 4.54 nM
- B17 — within 1.5-fold, 5.14 nM
- B18 — 3.6-fold higher, 13.6 nM

biological target: T1, huCD3e-mFc; experiment: Pool 3 screen, R2

Point of comparison: B19, Kd 7.96 nM. Against it:
- B1 — 2.1-fold lower, 3.72 nM
- B2 — within 1.5-fold, 5.75 nM
- B20 — 2.1-fold higher, 17 nM
- B21 — 2.7-fold higher, 21.2 nM
